Data as given in the nanobody polyreactivity screen of Harvey et al. (2022).

Experiment: yeast display, Sf9 membrane polyspecificity reagent, FACS + sequencing; frameworks hold sequencing errors
Outline: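 In a synthetic yeast display library (Saccharomyces cerevisiae BJ5465), nanobody expression was induced with galactose for 36–48 hours. FACS gates were set low and high (top ~1%) using anti-HA fluorescence for expression and streptavidin fluorescence for binding of the Sf9 membrane reagent. Each polyreactivity label is drawn from the gate of origin.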

## QVQLVESGGFLVQAGGSHRLSCAASGFTFQSNSMVWYRQAPGKERELVATITYSGGRTYYADSVKGRFTISRDNAKNTVYLQMNSLKPEDTAVYSCAARLAPLYRTYYYWGQGTQVTVSS
  polyreactivity (PSR sort gate): low polyreactivity

## QVQLVESAAGLVQAGGSLRLSCAASGFTFSFYTMGWYRQAPAKDRELVAAISSGGTPYYADSVKGRFTISRDNAKNTVYLQMNSLKPEDTAVYYCAAYGRYASWIEFYSNYDYWGQGTQVTVSS
  polyreactivity (PSR sort gate): low polyreactivity

## QVQLVESGGGLVQAGGSLRLSCAASGFIFVTYAMGWYRQAPGKERELVAAITNSGGTTYYADSVKGRFTISRDNAKNTVYLQMNSLKPEDTAVYYCNKPYGAETAHREFDYWGQGTQVTVSS
  polyreactivity (PSR sort gate): low polyreactivity

## QVQLVESGGGLVHAGGSLRLSCAASGRIFVGYYAMGWYRQAPGKERELVAAITIGGRTYYADSVKGRFTISRDNAKKTVYLQMKSLKPEDTAVYYCAASKYSRAYQEFGYWGQGTQVTVSS
  polyreactivity (PSR sort gate): high polyreactivity

## QVQLVESGGGLVQAGGSLRLSCAASGLTFYTYAMGWYRQAPGKERELVAAISSGGSTNYADSVKGRFTISRDNAKNTVYLQMNSLKPEDTAVYYCASGGQYYIIRYDYWGQGTQVTVSS
  polyreactivity (PSR sort gate): low polyreactivity

## QVQLVESGGGLVQAGGSLRLSCAASGFILVFYARGWYRPAPGKERELVAAIDWSGTITYYADSVKGRFTISRDNAKNTVYLQMNSLKPEDTAVYYCAADGEPFYDFYYWGQGTQVTVSS
  polyreactivity (PSR sort gate): high polyreactivity

## QVQLVESGGGLVQAGGSLPLSCAASGRTIYRYAMGSYRQAPGKERELDAAIRRSGDSTYYADSVKGRFTISRDIAKKTVYLQMNSLKPEDTAVYYCNAVASGRTYDYWGQGTQVTVSS
  polyreactivity (PSR sort gate): high polyreactivity

## QVQLVESGGGLVQAGGSLRLSCAASGFNYGIYAMGWYRQAPGKERELVAAISRGGGSTYYADSVKGRFTISRDNAKNTVYLQMNSLKPEDTAVYYCAARYQSPYDYWGQGTQVTVSS
  polyreactivity (PSR sort gate): high polyreactivity

## QVQLVESGGGLVQAGGSLRLSCAASGSTFYRYAMGWYRQAPGKERELVATITNSGGSTYYADSVKGRFTISRDNAKYTVYLQMNSLKPEDTAVYYCARVRSRNTGYYYWGQGTQVTVSS
  polyreactivity (PSR sort gate): high polyreactivity

## QVQLVESGGGLVQAGGSLRLSCAASGNTFAHYVMGWYRQAPGKERELVASITSGGSTNYADSVKGRFTISRDNAKNTVYLQMNSLKPEDTAVYYCAVSLSYWYEAFTTRIDYYYWGQGTQVTVSS
  polyreactivity (PSR sort gate): high polyreactivity

## QVQLVESCGGLVQAGGSLRLSCAASGLTFPKYAMGWYRQAPGKERELVARISYSGASTYYADSVKGRFTISRDNAKNTVYLQMNSLKPEDTAVYYCAARIYRVYYVHFAPYYYWGQGTQVTVSS
  polyreactivity (PSR sort gate): high polyreactivity

## QVQLVESCGGLVQAGGSLSLSCAASGRILYYYAMGWYRQAPGKERELVAAITSGGSTYADSVKGRFTISRDNAKNTVYLQMNSLKPEDTAVYYCNADYTVYDTEYDYWGQGTQVTVSS
  polyreactivity (PSR sort gate): low polyreactivity

## QVQLVESGGGLVQAGGSLRLSCAASGSTFGVYAMGWYRQAPAKEMELVARITWSGGSTDYADSVKGRFTISRDNAKNTVYLQMNSLKPEDTAVYYCAARAWWDWYSPRWYYYWGQGTQVTVSS
  polyreactivity (PSR sort gate): high polyreactivity

## QVQLVESGGGLVQAGGSLRLSCAASGSIFENYAMGCYRQAPGKERELVAAISSSGDSTYYADSVKGRFTISRDNAKNTVYLQMNSLKPEDTAVYYCAKGYRRVYGPFYYWGQVTQVTVSS
  polyreactivity (PSR sort gate): low polyreactivity

## QVQLVESGGGLVQAGGSLRLSCAASGFTFYRYAMGWYRQAPGKERELVAAITASGGSTYYADSVKGRFTISRDNAKNTVYLQMNSLKPEDTAVYYCAKGWVSYWRYKNEYWGQGTQVTVSS
  polyreactivity (PSR sort gate): high polyreactivity

## QVQLVESGGGLVQAGGSLRLSCAASGSIFRLYGKGLYRQAPGKEREFGASITYRGGNTYYADSVKGRFTISRDNAKNTVYLQMNSLKPEDTAVYYCARSGYQKVGGFRYDYWGQGTQVTVSS
  polyreactivity (PSR sort gate): low polyreactivity

## QVQLVESGGGLVPAGGSLRLSCAASGRIYARNAMGWYRKAPGKERDLVAAISSRGSSTYYADSVKGRFTISRDTAKNTVSLQMNSLKPEDTAVYYCNAYYSVYPPGYDYWGQGPQVTVSS
  polyreactivity (PSR sort gate): high polyreactivity

## QVQLVESGGGLVQAGGSLRLSCAASGRIFKYYAMGWYRQAPGKERELVARISRSSGNTYYADSVKGRFTISRDNAKNTVYLQMNSLKPEDTAVYYCATVPHYNGFNYWGQGTQVTVSS
  polyreactivity (PSR sort gate): high polyreactivity

## QVQLVESGGGLVQAGGSLRLSCAASGFIFAAYAMGWYRQAPGKERELVAAISGSGGRTYYADSVKGRFTISRDNAKNTVYLQMNSLKPEDTAVYYCATPPGYPPGSIKWSRFGYWGQGTQVTVSS
  polyreactivity (PSR sort gate): high polyreactivity

## QVQLVESGGGLVQAGGSLRLSCAASGFTWSYAMGWYRQAPGKERELVATISDGVSTNYADSVKGRFTISRDNAKNTVYLQMNSLKPEDTAVYYCAARYTSWGMGYWGQGTQVTVSS
  polyreactivity (PSR sort gate): low polyreactivity

## QVQLVESGGGLVQAGGSLRLICAASGFIFSAYAMGWYRQAPGKERELVAAISYSGGTTYYADSVKGRFTISRDNAKNTVYLQMNSLKPEDTAVYYCAAGVGYWGQGTQVTVSS
  polyreactivity (PSR sort gate): high polyreactivity

## QVQLVESGGGLVQAGGSLRLSCAASGSTYQNAMGWYRQAPGKEREFVAAISWSGGSTYYADSVKGRFTISRDNAKNTVYLQMNSLKPEDTAVYYCAAYSYFSPWYDYWGQGTQVTVSS
  polyreactivity (PSR sort gate): high polyreactivity

## QVQLVESGGGLVQEGGSLRLSCAASGSLFDVYAMGWYRQAPGKERELVAAISSSGSTYYADSVKGRFTISRDNAKNTVYLQMNSLKPEDTAVYYCAADQADDDDYYYWGQGTQVTVSS
  polyreactivity (PSR sort gate): low polyreactivity

## QVQLVESGGGLVQAGGSLRLSCAASGFIFDDNSMGWYRQAPGTEREFVAAISQGAGSTYYADSVKGRFTISRDTAKNTVNLQMNSLKPEDTAVYYCNNGRPKYWYGYKYDYWGHGTQVTVSS
  polyreactivity (PSR sort gate): low polyreactivity

## QVQLVESGGGLVQAGGSLRLSCAASGRTFYGNAMGWYRQAPGKERELVAAISWSGGSTYYADSVKGRFTISRDNAKNTVYLQMNSLKPEDTAVYYCNADYFAWDLMYYWGHGTQVTVSS
  polyreactivity (PSR sort gate): low polyreactivity

## QVQLVESGGGLVQAGGSLRLSCAASGRTFYLYGMGWYRQAPGKERELVAAITITDSTNYADSVKGRFTISRDNAKNTVYLQMNSLKPEDTAVYYCAKRRYYSTPRWGSSTYDYWGQGTQVTVSS
  polyreactivity (PSR sort gate): low polyreactivity

## QVQLVESGGGLVQAGGSLRLSCAASGSTFYVNTMGWYRQAPGKERELVAAINWRGGSTYYADSVKGRFTISRDNAKNTVYLQMNSLKPEDTAVYYCAAYGYYRYVTAYIYDMDYWGQGTQVTVSS
  polyreactivity (PSR sort gate): low polyreactivity

## LVQLQESRGGLVLAGGGLRLSCPESVNIFTYVIMGWYRQQPGKERELVAAITYGTFTNYADSVKGPFTISRDNAKNTVYLHMNCLKPEDTAVYHCAVQSPLIEPRLYYWGQGTQVTVSS
  polyreactivity (PSR sort gate): high polyreactivity

## QVQHVESGGGLVQAGGSLRLSCAASGSIFTDYAMGWYRQAPGHDRELVAAITLGGNTNYADSVKGRFTISRDNAKHSVYLEMISLLREDTAVYDCATGGYYSAIVYGGYDVWGQGTQVTVSS
  polyreactivity (PSR sort gate): low polyreactivity

## QVQLVESGGGLVQAGGSLRLSCAASGSIFKPYAMGWYRQAPGKERELVAVISWRGGSTYYADSVKGRFTISRDYAKNTVYFQMNSLKPEDTAVYYCAARRYRYFDGTVPLDYWGQGTQVSVSS
  polyreactivity (PSR sort gate): high polyreactivity

## QVQLVESGGGLVQAGGSLRLSCAASGSIFAPYVMGWYRQAPGKERELVAAITESGGRTYYADSVKGRFTISRDNAKNTVYLQMNSLKPEDTAVYYCAARTYDRNRQLRRQWYDYWGQGTQVTVSS
  polyreactivity (PSR sort gate): high polyreactivity

## QVQLVESGGRLVQAGGSLRLSCAASGRIFTQYAMGWYRQSPGKERELVAAINASDGSTYADSVKGRFTSSRDNAQNTVYLQMKRLKPADTAVYYCNVTGGTYDFTRWSEFDHWGQGTQVTVSS
  polyreactivity (PSR sort gate): low polyreactivity

## QVQLVETGVGLVQAGGSLRLSSAASGSIFFTYTMGRYRQAPGKERELVATITYGGGGTYYADSVKGRFTISRDNAKNTVYLQMNSLKAEDTAVYYCAKDHATVLSRWYRGMDYWGQGTQVTVSS
  polyreactivity (PSR sort gate): low polyreactivity

## QVQLVESGGGLVQAGGSLRLSCAASGRTFSHNAMGWYRQAPGKERELVATINSGGSTYADSVKGRFTISRDNAKNTVYLQMNSLKPEDTAVYYCNAAHGSRAFFGGYDYWGQGTQVTVSS
  polyreactivity (PSR sort gate): high polyreactivity

## QVQLVESGGGLVQAGGSLRLSCAASGYTFDGYAMGRYRQAPGKERELVAAINSGGGTYYADSVKGRFTISRDNAKNTVYLQMNSLKPEDTAVYYCAKYTYDYWGQGTQVTVSS
  polyreactivity (PSR sort gate): low polyreactivity

## QVQLVESGGGLVQAGGSLRLSCAASGRTIYQYAMGWYRQAPGKERELVAAISRGGSTNYADSLKGRFTISRDNAKNTVFLQMHSLKPEDTAVYYCASWYKFLSLKRLYERDYWGQGTQVTVSS
  polyreactivity (PSR sort gate): high polyreactivity

## QVQLVESGGGLVQAGGSLRLSCAASGSTFVSNAMGWYRQAPGKEREFVAAISGSGGSTYYADSVKGRFTISRDNAMNTVYLQMNSLKPEVTAVYYCATAGRYGRYRTYPYRSKYDYWGQGTQVTVSS
  polyreactivity (PSR sort gate): high polyreactivity

## QVQLVESGGGLVQAGGSLRLSCAASGSTFVSYDMGWYRQAPGKERELVAAIDWSGGNTDYADSVKGRFTISRDNAKNTVYLQMNSLKPEDNAVYYCAVEKFFRAEYDHWGQGTQVTVSS
  polyreactivity (PSR sort gate): low polyreactivity

## QVQLVESVGGLVQAGGSLRLSCAASGRTFGTYAMGWYRQAPGKERELVAAISTRGGRTFYADSVKGRFTISRDNAKNTVYLQMNSLKPEDTAVYYCAKGVFTWGVFRVGIRDDYWGQGTQVTVSS
  polyreactivity (PSR sort gate): high polyreactivity

## QVQLVESGGGLVQAGGSLRLSCAASGSIFTFNAMGWYRQAPGKERELVATISRRTGSTYYADSVKGRFTISRDNAKNTVYLQMNSLKPEDTAVYYCAARRRVYWYNHYNYWGQGTQVTVSS
  polyreactivity (PSR sort gate): high polyreactivity

## QVQLVESGGGLVQAGGSLRLSCAASGSTFSQYAMGWYRQAPGKETELVAVITRSGGSTYYADSVKGRFTISRDNAKNTVYLQMNSLKPEDTAVYYCAARSGRYKGDYWGQGTQVTVSS
  polyreactivity (PSR sort gate): low polyreactivity

## QVQLVESGGGLVQAGGSLRLSCAASGSIFQNYAMGWYRQAPGKERELVAAINDDSTYYADSVKGRFTISRDNAKNTVYLQMNSLKPEDTAVYYCNAEDYVTLKIDLSWPYGYWGQGTQVTVSS
  polyreactivity (PSR sort gate): low polyreactivity

## QDQLVETGGGLVQARGSLRLSCAASGITFDKYAMGWYRQAPGKERELVAAISGSDGSTYYADSVKGRFTISRDNAKNTVYLQMNSLKQEDTSVYYCAAESEYAGTFEYDYWGQGTQVSVSS
  polyreactivity (PSR sort gate): low polyreactivity
